From the supplement of paper PMC10567573
± gives the standard deviation.

Experiment: protein stability index of a GFP-peptide fusion (GPS, HEK-293T) (PSI 1-6); higher = more stable
Conditions: c terminus: a fixed tail appended
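Also: 24-mer peptide tiles fused after GFP, lentivirally expressed, FACS-sorted into six equal bins by GFP/DsRed ratio, decoded by Illumina sequencing, PSI is the read-weighted mean bin number.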

Sequence	protein stability index (treatment: DMSO)	protein stability index (treatment: MLN4924 1 uM, 8 h)
MPCLLMELRRDSSESQLASTESDK [C18orf25]	4.73 ± 0.05	4.55 ± 0.22
QSLPKASPVTTSPTAATTQNPVLS [LCOR]	4.92 ± 0.19	4.85 ± 0.21
ASYSGKAADVWSLGVALFTMLAGH [TRIB3]	2.99 ± 0.43	2.75 ± 0.54
TKETEQLRSQLQTLKQQHQQAVEQ [CCDC89]	4.9 ± 0.19	4.87 ± 0.21
LFNILAKFNGITEKEYKTYKENFL [USP39]	2.16 ± 0.43	2.5 ± 0.25
RELLLDGGYLQRTTYDRRSSQERK [RSPH3]	4.39 ± 0.28	4.8 ± 0.24
GYGGGFSSSSSFGSGFGGGYGGGL [KRT16]	2.47 ± 0.33	2.57 ± 0.14
RRLPLAFRDATSAPLRKLSVDLIK [DYRK1B]	2.46 ± 0.39	2.45 ± 0.26
PIDQGPAIGRVRVLEEQLVKAKEQ [FUT8]	5 ± 0.16	5.09 ± 0.27
FAHSSNLLRHQRIHTGERPYKCPE [ZNF263]	2.99 ± 0.28	3.35 ± 0.36
